Patent US20120129757A1, “COMPOSITIONS AND METHODS FOR PROMOTING VASCULAR BARRIER FUNCTION AND TREATING PULONARY FIBROSIS” (priority 2008, published 2012)
“Also recorded” adds a separate entry of the source.

How the values were obtained:
BL/6 mice = assay type: in vivo, mouse
HMVEC-lung [1] = assay: Immunofluorescence for VE-cadherin and p120-catenin after IL-1β stimulation; assay type: cell-based, human; conditions: 10 ng/mL IL-1β 3 hours, Slit2N pre-treatment 30 minutes
Experimental: Immunofluorescence. Immunofluorescence was performed as described in Jones, C. […] 2008. Cells were pre-treated with Slit2N or Mock for 30 minutes followed by stimulation with 10 ng/mL IL-1β for 3 hours. Primary antibodies to VE-cadherin (BD biosciences) or p120-catenin (Santa Cruz) were applied at 4° C. overnight. Images are representative of three independent experiments.

primary human PMNs = assay: Neutrophil migration to fMLP, primary hPMNs; assay type: cell-based; conditions: fMLP 10 μM, 2 h
Experimental: Neutrophil migration. HL-60 cells were grown under standard conditions with RPMI-1640 media supplemented with 10% FBS and 1% pen/step. Cells induced with 1.2% dimethyl sulphoxide (DMSO) were obtained by seeding HL-60 cells at 3×10^6 per mL in growth media and culturing for 4 6 days (Collins, S. J., F. W. Ruscetti, R. E. Gallagher, and R. C. Gallo. 1978. Terminal differentiation of human promyelocytic leukemia cells induced by dimethyl sulfoxide and other polar compounds. Proc Natl Acad Sci USA 75:2458-2462). hPMNs were isolated from healthy adult donor whole blood with ACD using techniques described in Zimmerman, G. A., T. M. McIntyre, and S. M. Prescott. 1985. Thrombin stimulates the adherence of neutrophils to human endothelial cells in vitro. J Clin Invest 76:2235-2246. The leukocyte chemoattractant fMLP (10 μM) along with Slit2 or Mock was placed in the lower wells of a 48-well chemotaxis chamber (Neuroprobe). A fibronectin coated (over night at 4° C.) polycarbonate membrane (Neuroprobe, 5 μm) was placed between the chemoattractant and the cells. HL-60 cells induced with DMSO or hPMNs (50 μl, 50,000 cells) were added to the upper wells. […] Migrated cells in 5 high power fields were counted and migration expressed as the percent of cells migrated compared to cells migrated towards fMLP in the absence of Slit2 or Mock.

C57BL/6 mice [2] = assay type: in vivo, mouse
VE-cadherin = VE-cadherin internalization assay; assay type: cell-based, human; conditions: HMVEC-lung, 10 ng/ml IL-1β 1 hour, 10 nM Slit2N
Experimental: Internalization assay. VE-cadherin internalization was performed as described Xiao, K., J. Garner, K. M. Buckley, P. A. Vincent, C. M. Chiasson, E. Dejana, V. Faundez, and A. P. Kowalczyk. 2005. p120-Catenin regulates clathrin-dependent endocytosis of VE-cadherin. Mol Biol Cell 16:5141-5151. In brief, HMVEC-lung were seeded onto chamber slides and cultured for 72 hours. The media was then removed and the cells labeled for 30 minutes at 4° C. with anti-VE-cadherin antibody (clone BV6, RDI Fitzgerald). Cells were then pre-treated with Slit2N or Mock for 30 minutes. Excess antibody was removed by washing twice on ice with ice-cold media. Chamber slides were moved to 37° C. and incubated for 1 hour with 10 ng/ml IL-1β and 0.6 mM primaquine in the presence of 10 nM Slit2N or Mock. Cells were acid-washed to strip the surface-bound VE-cadherin. Monolayers were washed, fixed, and permeablized. Internalized VE-cadherin antibody was detected with Alexa 488-conjugated donkey anti-mouse IgG (Molecular Probes). Images are representative of four independent experiments.

[3] = test system: H5N1 virus (Influenza A, Duck/MN/1525/81); assay type: in vivo, BALB/c mice
C57BL/6 mice [4] = assay type: in vivo, mouse; remark: listed apart in the source
[5] = test system: VE-cadherin/p120-catenin interaction; assay: Immunoprecipitation of VE-cadherin, immunoblot for p120-catenin; assay type: cell-based, human; conditions: HMVEC-lung, 10 ng/mL IL-1β 10 minutes
Experimental: Immunoprecipitation. HMVEC-lung were treated with Slit2N or Mock in 0.1% FBS EBM-2 for 30 minutes. Cells were then stimulated with 10 ng/mL IL-1β for 10 minutes. HMVEC-lung were then washed with ice-cold PBS and lysed with ice-cold lysis buffer (10 mM Tris-HCl pH7.4, 50 mM NaCl, 1% NP-40 and 10% glycerol) supplemented with protease inhibitors, phosphatase inhibitors and 1 mM DTT. Cell lysates were incubated on ice for 30 min and centrifuged at 13,000 g for 15 minutes to pellet cell debris. Protein concentrations were determined by BCA assay (PIERCE) and 0.5 mg lysate were incubated with 8 μg of VE-cadherin antibody (Cell Signaling) and protein A/G sepharose (Santa Cruz) for 1 hour at 4° C. Complexes were washed three times with lysis buffer. The immunoprecipitates were subjected to Western blot analysis.

HMVEC-lung [6] = assay: Subcellular (membrane) fractionation and immunoblotting; assay type: cell-based, human
Experimental: Subcellular fractionation. HMVEC-lung were treated with Slit2N or Mock in 0.1% FBS EBM-2 for 1.5 hours. Cells were then washed twice with ice-cold PBS containing Ca^2+/Mg^2+, once with HLB buffer (10 mM Tris-HCl PH7.4, 5 mM KCl, 1 mM MgCl2), and collected in HLB buffer supplemented with protease inhibitors (Roche), phosphatase inhibitors (Sigma) and 1 mM DTT. Cells were then dounce-homogenized (20 strokes). The homogenate was centrifuged at 400 g for 10 minutes at 4° C. to pellet cell debris. The resulting supernatant was centrifuged again at 16,000 g for 30 minutes at 4° C. The pellet was washed once with HLB and resuspended in RIPA buffer for 30 minutes at 4° C. The resuspended pellet was centrifuged (16,000 g/15 min at 4° C.), and the resulting supernatant was saved as soluble membrane fraction. To obtain the total cell lysate an aliquot was saved prior to dounce homogenization. RIPA buffer was added to this aliquot and centrifuged at 13,000 g for 10 minutes at 4° C. The supernatant was saved and used as total cell lysate. Antibodies to VE-cadherin were obtained from Cell Signaling, and p120-catenin and β-catenin from BD biosciences.

endothelial cell = assay: VEGF mediated endothelial cell migration; assay type: cell-based; conditions: Slit constructs 2 nM
[7] = 20 μg VE-cadherin blocking antibody (BV13) IV, LPS IT
[8] = Robo4+/+ mice, 24 hours after LPS, dose-dependent
[9] = Slit2N vs Mock, membrane fraction

`COc1nc(-c2ccc3c(c2)OCO3)n(-c2ccc(NC(=O)CSc3ccccc3)cc2)n1` [SecinH3, reference compound] was tested, and the “Bleomycin-induced fibrosis (Sircol collagen assay)” value (BL/6 mice; BL/6 mice, 0.05 U Bleomycin intranasal, 100 uL of 30 uM SecinH3 i.p. twice a day, day 11) was “inhibits”.

B1: Slit2N: N-terminal active fragment of Slit2 released by proteolytic cleavage; 150 kD recombinant protein, SEQ ID NO: 4 (protein, listed as Homo sapiens)
chain: QACPAQCSCSGSTVDCHGLALRSVPRNIPRNTERLDLNGNNITRITKTDFAGLRHLRVLQLMENKISTIERGAFQDLKELERLRLNRNHLQLFPELLFLGTAKLYRLDLSENQIQAIPRKAFRGAVDIKNLQLDYNQISCIEDGAFRALRDLEVLTLNNNNITRLSVASFNHMPKLRTFRLHSNNLYCDCHLAWLSDWLRQRPRVGLYTQCMGPSHLRGHNVAEVQKREFVCSDEEEGHQSFMAPSCSVLHCPAACTCSNNIVDCRGKGLTEIPTNLPETITEIRLEQNTIKVIPPGAFSPYKKLRRIDLSNNQISELAPDAFQGLRSLNSLVLYGNKITELPKSLFEGLFSLQLLLLNANKINCLRVDAFQDLHNLNLLSLYDNKLQTIAKGTFSPLRAIQTMHLAQNPFICDCHLKWLADYLHTNPIETSGARCTSPRRLANKRIGQIKSKKFRCSGTEDYRSKLSGDCFADLACPEKCRCEGTTVDCSNQKLNKIPEHIPQYTAELRLNNNEFTVLEATGIFKKLPQLRKINFSNNKITDIEEGAFEGASGVNEILLTSNRLENVQHKMFKGLESLKTLMLRSNRITCVGNDSFIGLSSVRLLSLYDNQITTVAPGAFDTLHSLSTLNLLANPFNCNCYLAWLGEWLRKKRIVTGNPRCQKPYFLKEIPIQDVAIQDFTCDDGNDDNSCSPLSRCPTECTCLDTVVRCSNKGLKVLPKGIPRDVTELYLDGNQFTLVPKELSNYKHLTLIDLSNNRISTLSNQSFSNMTQLLTLILSYNRLRCIPPRTFDGLKSLRLLSLHGNDISVVPEGAFNDLSALSHLAIGANPLYCDCNMQWLSDWVKSEYKEPGIARCAGPGEMADKLLLTTPSKKFTCQGPVDVNILAKCNPCLSNPCKNDGTCNSDPVDFYRCTCPYGFKGQDCDVPIHACISNPCKHGGTCHLKEGEEDGFWCICADGFEGENCEVNVDDCEDNDCENNSTCVDGINNYTCLCPPEYTGELCEEKLDFCAQDLNPCQHDSKCILTPKGFKCDCTPGYVGEHCDIDFDDCQDNKCKNGAHCTDAVNGYTCICPEGYSGLFCEFSPPMVLPRT
With B1 the “IL-1β decrease of p120-catenin at the cell surface” value (HMVEC-lung [1]) was “reversed this effect”, the “IL-1β reduction of VE-cadherin levels at the cell surface” value (HMVEC-lung [1]) was “negated this effect” and the “neutrophil migration to fMLP” value (primary human PMNs) was “did not respond”. The “survival of mice exposed to CLP-induced sepsis” value (C57BL/6 mice [2]; mouse, in vivo, ip) was ~80%, the “expression of a panel of cytokines and chemokines in plasma” value (C57BL/6 mice [2]; six hours after CLP) was “did not alter” and the “internalization of VE-cadherin induced by IL-1β” value (VE-cadherin) was “blocks”. For the same molecule, the “Bleomycin-induced pulmonary fibrosis (Sircol collagen)” value (BL/6 mice; Robo4+/+ mice, day 11, 5 μg daily i.p.) was “significantly reduced”, the “Bleomycin-induced EBA accumulation in the lung” value (BL/6 mice; Robo4+/+ mice, eleven days after Bleomycin, 5 μg daily i.p.) was “significantly reduced” and the “histologic examination of the lung, trichrome stain (collagen deposition)” value (BL/6 mice; Robo4-dependent manner) was “confirmed the effect”. The “effect on Bleomycin-induced EBA accumulation in the lung, Robo4-null mice” value (BL/6 mice; Robo4AP/AP mice) was “lost”, the “effect on Bleomycin-induced pulmonary fibrosis, Robo4-null mice” value (BL/6 mice; Robo4AP/AP mice) was “lost” and the “lung pathology (H&E)” value ([3]; 6 days after infection, compared to mock treated mice) was “decreased in severity”. For the same molecule, the “level of inflammatory cytokine release in lung homogenates” value ([3]; 6 days post-infection) was “does not significantly reduce”, the “lung viral titers (viral load)” value ([3]; 6 days post-infection) was “did not alter” and the “mortality after H5N1 infection” value ([3]; 21 days, 1.56 μg IV daily for 5 days) was “reduced”. For the same molecule, the “inflammatory cell infiltration in BALF in the presence of a VE-cadherin blocking antibody” value (C57BL/6 mice [4]; [7]) was “not”, the “protein exudates in BALF in the presence of a VE-cadherin blocking antibody” value (C57BL/6 mice [4]; [7]) was “not” and the “inflammatory cell infiltration in BALF in the presence of a control IgG antibody” value (C57BL/6 mice [4]; 20 μg control IgG IV, LPS IT) was “reduced”. The “protein exudates in BALF in the presence of a control IgG antibody” value (C57BL/6 mice [4]; 20 μg control IgG IV, LPS IT) was “reduced”, the “vascular leak in the lungs (Evans Blue Albumin)” value (C57BL/6 mice [4]; LPS treated Robo4+/+ mice, 10 μg LPS IT, 3.5 μg Slit2N IV) was “significantly reduces” and the “effect on vascular leak in the lungs (Evans Blue Albumin), Robo4-null mice” value (C57BL/6 mice [4]; LPS treated Robo4AP/AP mice) was “lost”. For the same molecule, the “LPS-induced lung inflammation / ALI by histological examination (H&E, quantitative histology)” value (C57BL/6 mice [4]; Robo4+/+ mice) was “reducing; also recorded: reduces”, the “inflammatory cell accumulation in BALF” value (C57BL/6 mice [4]; [8]) was “reduced” and the “protein exudates in BALF” value (C57BL/6 mice [4]; [8]) was “reduced”. The “inhibition of leukocyte accumulation in BALF, Robo4-null mice” value (C57BL/6 mice [4]; Robo4AP/AP mice) was “lost”, the “inhibition of protein accumulation in BALF, Robo4-null mice” value (C57BL/6 mice [4]; Robo4AP/AP mice) was “lost” and the “association of VE-cadherin and p120-catenin after IL-1β” value [5] was “restores”. The “VE-cadherin levels at the cell surface junctions” value (HMVEC-lung [6]; Slit2N vs Mock 1.5 hours, membrane fraction and immunofluorescence) was “significantly increased”, the “cell surface p120-catenin expression” value (HMVEC-lung [6]; [9]) was “increased” and the “other junction or catenin family members (β-catenin)” value (HMVEC-lung [6]; [9]) was “no observed effect”.

B2: Slit2-D1: Recombinant Slit2 construct, 40 kD, SEQ ID NO: 7 (protein, listed as Homo sapiens)
chain: ILNKVAPQACPAQCSCSGSTVDCHGLALRSVPRNIPRNTERLDLNGNNITRITKTDFAGLRHLRVLQLMENKISTIERGAFQDLKELERLRLNRNHLQLFPELLFLGTAKLYRLDLSENQIQAIPRKAFRGAVDIKNLQLDYNQISCIEDGAFRALRDLEVLTLNNNNITRLSVASFNHMPKLRTFRLHSNNLYCDCHLAWLSDWLRQRPRVGLYTQCMGPSHLRGHNVAEVQKREFVCS
For B2, the “Inhibition of VEGF mediated endothelial cell migration” value (endothelial cell) was “active”.
